Measurements: publication PMC7139386, “Defects in Galactose Metabolism and Glycoconjugate Biosynthesis in a UDP-Glucose Pyrophosphorylase-Deficient Cell Line Are Reversed by Adding Galactose to the Growth Medium” (International Journal of Molecular Sciences, 2020)

Experiments:
Type in all cases: biochemical, Homo sapiens
[1] = substrate: O=P(O)(O)O[C@H]1O[C@H](CO)[C@H](O)[C@H](O)[C@H]1O; assay: continuous assay based on PPi detection, forward reaction, Michaelis-Menten and cooperative fits; conditions: Gal1P varied 0.01-2 mM at 1 mM UTP
[2] = substrate: O=P(O)(O)O[C@H]1O[C@H](CO)[C@@H](O)[C@H](O)[C@H]1O; assay: continuous assay based on PPi detection, forward reaction, Michaelis-Menten fit; conditions: Glc1P varied 0.01-1 mM at 1 mM UTP
[3] = substrate: O=c1ccn([C@@H]2O[C@H](COP(=O)(O)OP(=O)(O)OP(=O)(O)O)[C@@H](O)[C@H]2O)c(=O)[nH]1; assay: as above; conditions: UTP varied 0.01-0.8 mM at 2 mM Glc1P

| Protein | Km [1] | Km [2] | Km [3] |
| --- | --- | --- | --- |
| HsUGP (Homo sapiens) (protein, octameric) MSRFVQDLSKAMSQDGASQFQEVIRQELELSVKKELEKILTTASSHEFEHTKKDLDGFRKLFHRFLQEKGPSVDWGKIQRPPEDSIQPYEKIKARGLPDNISSVLNKLVVVKLNGGLGTSMGCKGPKSLIGVRNENTFLDLTVQQIEHLNKTYNTDVPLVLMNSFNTDEDTKKILQKYNHCRVKIYTFNQSRYPRINKESLLPVAKDVSYSGENTEAWYPPGHGDIYASFYNSGLLDTFIGEGKEYIFVSNIDNLGATVDLYILNHLMNPPNGKRCEFVMEVTNKTRADVKGGTLTQYEGKLRLVEIAQVPKAHVDEFKSVSKFKIFNTNNLWISLAAVKRLQEQNAIDMEIIVNAKTLDGGLNVIQLETAVGAAIKSFENSLGINVPRSRFLPVKTTSDLLLVMSNLYSLNAGSLTMSEKREFPTVPLVKLGSSFTKVQDYLRRFESIPDMLELDHLTVSGDVTFGKNVSLKGTVIIIANHGDRIDIPPGAVLENKIVSGNLRILDH | 842.0 ± 72.8 µM | 34.2 ± 1.99 µM | 76.29 ± 3.96 µM |
| HsUGP (Homo sapiens; G116D) (protein, octameric) MSRFVQDLSKAMSQDGASQFQEVIRQELELSVKKELEKILTTASSHEFEHTKKDLDGFRKLFHRFLQEKGPSVDWGKIQRPPEDSIQPYEKIKARGLPDNISSVLNKLVVVKLNGDLGTSMGCKGPKSLIGVRNENTFLDLTVQQIEHLNKTYNTDVPLVLMNSFNTDEDTKKILQKYNHCRVKIYTFNQSRYPRINKESLLPVAKDVSYSGENTEAWYPPGHGDIYASFYNSGLLDTFIGEGKEYIFVSNIDNLGATVDLYILNHLMNPPNGKRCEFVMEVTNKTRADVKGGTLTQYEGKLRLVEIAQVPKAHVDEFKSVSKFKIFNTNNLWISLAAVKRLQEQNAIDMEIIVNAKTLDGGLNVIQLETAVGAAIKSFENSLGINVPRSRFLPVKTTSDLLLVMSNLYSLNAGSLTMSEKREFPTVPLVKLGSSFTKVQDYLRRFESIPDMLELDHLTVSGDVTFGKNVSLKGTVIIIANHGDRIDIPPGAVLENKIVSGNLRILDH | – | 53.97 ± 4.11 µM | 79.50 ± 4.93 µM |
